From patent EP2105446A2

What was measured:
[1] = biological target: MPL-zalpha11 polypeptide chimera (MPL extracellular and TM domain fused to the zalpha11 intracellular signaling domain), expressed on BaF3 cells (human) (UniProt P40238); test: cell-based or functional assay
[2] = biological target: factor present in the activated CD3+ selected human T-cell conditioned media (human); test: cell-based or functional assay

| proliferation of BaF3/MPL-zalpha11 cells (Alamar Blue) (fold over background) [1] | inhibition of BaF3/Zalpha11 cell growth (Alamar Blue), concentration giving complete inhibition [2] | titration of soluble receptor, lowest concentration giving complete inhibition of BaF3/Zalpha11 growth [2] | Substance |
| --- | --- | --- | --- |
| 10 | – | – | thrombopoietin (TPO) (ligand) |
| – | 10 µg/mL | 1.5 µg/mL | zalpha11-Fc4 (mutant) soluble receptor (zalpha11 extracellular domain fused C-terminally to human IgG/Fc) (from UniProt Q9HBE5 20-237) (Fc fusion) |
